{"source": "patent US20230331840A1", "key": {"CD22-his (human)": {"target": "CD22-his (human) (UniProt P20273)", "test": "ELISA"}, "h CD22-His (human)": {"target": "h CD22-His (human) (UniProt P20273)", "test": "BLI (Fortebio)"}}}
{"substance": "M971", "values": [{"measurement": "EC50", "setting": "CD22-his (human)", "result": 0.195, "unit": "nM"}, {"measurement": "Kd", "setting": "h CD22-His (human)", "result": 0.86, "unit": "nM"}]}
